For test [1], the target named is T1, HACE1 full length, wild type (HACE1 FL) (human), Q8IYU2.
T1 chain: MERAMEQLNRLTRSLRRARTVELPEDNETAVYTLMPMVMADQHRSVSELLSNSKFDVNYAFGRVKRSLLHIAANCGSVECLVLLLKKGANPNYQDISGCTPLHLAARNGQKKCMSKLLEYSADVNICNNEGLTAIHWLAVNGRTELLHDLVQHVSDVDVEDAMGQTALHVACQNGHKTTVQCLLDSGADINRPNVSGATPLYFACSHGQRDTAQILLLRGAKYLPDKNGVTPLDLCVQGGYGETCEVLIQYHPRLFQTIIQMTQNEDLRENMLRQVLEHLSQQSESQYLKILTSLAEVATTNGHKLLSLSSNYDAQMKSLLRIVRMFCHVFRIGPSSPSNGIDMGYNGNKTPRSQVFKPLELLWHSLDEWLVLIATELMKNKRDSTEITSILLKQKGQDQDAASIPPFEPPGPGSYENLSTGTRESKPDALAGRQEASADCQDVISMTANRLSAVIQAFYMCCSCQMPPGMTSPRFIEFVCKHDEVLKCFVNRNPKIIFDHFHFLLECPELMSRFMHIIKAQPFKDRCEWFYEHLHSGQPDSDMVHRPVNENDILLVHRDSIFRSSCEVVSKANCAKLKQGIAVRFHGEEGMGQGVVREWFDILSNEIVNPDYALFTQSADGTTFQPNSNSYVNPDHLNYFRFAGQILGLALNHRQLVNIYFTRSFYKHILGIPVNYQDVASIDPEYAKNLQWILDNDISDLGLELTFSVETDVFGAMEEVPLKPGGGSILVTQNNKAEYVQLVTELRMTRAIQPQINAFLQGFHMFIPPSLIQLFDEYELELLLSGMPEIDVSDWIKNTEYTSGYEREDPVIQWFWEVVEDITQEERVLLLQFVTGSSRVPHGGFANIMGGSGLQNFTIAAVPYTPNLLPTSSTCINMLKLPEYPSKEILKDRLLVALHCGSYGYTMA
Briefly: SEC; analytical SEC, 20 μM HACE1, 50 mM HEPES (pH 8.0), 150 mM NaCl, 1 mM DTT, Superdex 200 Increase 3.2/300, 4 °C. The settings on record: remark: other sources report otherwise. (SEC sorts molecules by how far they enter the pores of the column.)

Test [2] addresses T1, HACE1 full length, wild type (HACE1 FL) …. Kind of test: mass photometry; HACE1 samples at 20–40 nM in 25 mM HEPES (pH 8.0), 150 mM NaCl; One^MP mass photometer, BSA calibration. The conditions noted are these: remark: other sources report otherwise.

B1: HACE1 full length, wild type (HACE1 FL), Q8IYU2 1-909 (enzyme)
chain: MERAMEQLNRLTRSLRRARTVELPEDNETAVYTLMPMVMADQHRSVSELLSNSKFDVNYAFGRVKRSLLHIAANCGSVECLVLLLKKGANPNYQDISGCTPLHLAARNGQKKCMSKLLEYSADVNICNNEGLTAIHWLAVNGRTELLHDLVQHVSDVDVEDAMGQTALHVACQNGHKTTVQCLLDSGADINRPNVSGATPLYFACSHGQRDTAQILLLRGAKYLPDKNGVTPLDLCVQGGYGETCEVLIQYHPRLFQTIIQMTQNEDLRENMLRQVLEHLSQQSESQYLKILTSLAEVATTNGHKLLSLSSNYDAQMKSLLRIVRMFCHVFRIGPSSPSNGIDMGYNGNKTPRSQVFKPLELLWHSLDEWLVLIATELMKNKRDSTEITSILLKQKGQDQDAASIPPFEPPGPGSYENLSTGTRESKPDALAGRQEASADCQDVISMTANRLSAVIQAFYMCCSCQMPPGMTSPRFIEFVCKHDEVLKCFVNRNPKIIFDHFHFLLECPELMSRFMHIIKAQPFKDRCEWFYEHLHSGQPDSDMVHRPVNENDILLVHRDSIFRSSCEVVSKANCAKLKQGIAVRFHGEEGMGQGVVREWFDILSNEIVNPDYALFTQSADGTTFQPNSNSYVNPDHLNYFRFAGQILGLALNHRQLVNIYFTRSFYKHILGIPVNYQDVASIDPEYAKNLQWILDNDISDLGLELTFSVETDVFGAMEEVPLKPGGGSILVTQNNKAEYVQLVTELRMTRAIQPQINAFLQGFHMFIPPSLIQLFDEYELELLLSGMPEIDVSDWIKNTEYTSGYEREDPVIQWFWEVVEDITQEERVLLLQFVTGSSRVPHGGFANIMGGSGLQNFTIAAVPYTPNLLPTSSTCINMLKLPEYPSKEILKDRLLVALHCGSYGYTMA
With B1, the stoichiometry N in test [1] and in test [2] was 2 throughout.

The term stoichiometry N denotes a count of units in the complex or per binding partner.

Source of the values: paper PMC10873202, “Structural mechanisms of autoinhibition and substrate recognition by the ubiquitin ligase HACE1” (Nature Structural & Molecular Biology, 2024).
